Measurements published in article PMC10450579 (2023).
“And” between values parts separate entries of the source, which are not always exact repeats. Identical values can stand only once.

B1: Aurora A kinase (AurA), residues 122 to 403 (domain or fragment)
chain: ESKKRQWALEDFEIGRPLGKGKFGNVYLAREKQSKFILALKVLFKAQLEKAGVEHQLRREVEIQSHLRHPNILRLYGYFHDATRVYLILEYAPLGTVYRELQKLSKFDEQRTATYITELANALSYCHSKRVIHRDIKPENLLLGSAGELKIADFGWSVHAPSSRRTTLCGTLDYLPPEMIEGRMHDEKVDLWSLGVLCYEFLVGKPPFEANTYQETYKRISRVEFTFPDFVTEGARDLISRLLKHNPSQRPMLREVLEHPWITANSSKPSNCQNKESASKQS
B2: monobody Mb2 (designed binder)
chain: GSVSSVPTKLEVVAATPTSLLISWDAPAVTVVHYVITYGETGGNSPVQEFTVPGSKSTATISGLKPGVDYTITVYAIDFYWGSYSPISINYRT

Tests used:
[1] = target: Mb3; test: ITC; AurA preincubated with danusertib
[2] = target: Mb3; test: ITC
[3] = target: B1; test: ITC

Binder: B1
- Kd [1]: 69 nM
- Kd [2]: 180 nM

Binder: B2
- Kd [3]: 889 nM and 1500 nM
